# Data reported in patent US5831013, “Capsid polypeptides and use to inhibit viral packaging” (The Research Foundation of State University of New York, dated 1998).
# T1: ScVLa capsid protein Cap, full size (697 amino acids) (ScVLa virus of Saccharomyces cerevisiae)
# T1 chain: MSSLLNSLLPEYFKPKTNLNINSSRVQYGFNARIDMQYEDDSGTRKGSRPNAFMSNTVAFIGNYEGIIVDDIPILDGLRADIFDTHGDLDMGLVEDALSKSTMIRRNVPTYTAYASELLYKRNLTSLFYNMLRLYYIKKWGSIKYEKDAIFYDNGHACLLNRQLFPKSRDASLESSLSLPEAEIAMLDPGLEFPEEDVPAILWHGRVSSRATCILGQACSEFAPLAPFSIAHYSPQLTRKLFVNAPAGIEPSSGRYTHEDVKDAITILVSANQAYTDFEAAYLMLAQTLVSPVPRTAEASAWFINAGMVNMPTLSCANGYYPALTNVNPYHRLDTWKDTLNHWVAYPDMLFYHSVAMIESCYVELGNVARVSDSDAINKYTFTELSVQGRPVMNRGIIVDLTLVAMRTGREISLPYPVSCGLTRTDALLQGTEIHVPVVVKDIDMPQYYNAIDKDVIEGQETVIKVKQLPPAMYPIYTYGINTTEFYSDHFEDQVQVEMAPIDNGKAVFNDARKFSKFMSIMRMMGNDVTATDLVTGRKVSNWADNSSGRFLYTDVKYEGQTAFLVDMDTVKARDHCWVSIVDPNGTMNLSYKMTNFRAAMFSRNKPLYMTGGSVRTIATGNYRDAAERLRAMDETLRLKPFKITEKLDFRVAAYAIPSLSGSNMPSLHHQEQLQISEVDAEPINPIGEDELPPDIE
# B1: La Cap N-terminal fragment of nonsense mutant pGLa1m3 (K506O, aa 1-505) (other)
# chain: MSSLLNSLLPEYFKPKTNLNINSSRVQYGFNARIDMQYEDDSGTRKGSRPNAFMSNTVAFIGNYEGIIVDDIPILDGLRADIFDTHGDLDMGLVEDALSKSTMIRRNVPTYTAYASELLYKRNLTSLFYNMLRLYYIKKWGSIKYEKDAIFYDNGHACLLNRQLFPKSRDASLESSLSLPEAEIAMLDPGLEFPEEDVPAILWHGRVSSRATCILGQACSEFAPLAPFSIAHYSPQLTRKLFVNAPAGIEPSSGRYTHEDVKDAITILVSANQAYTDFEAAYLMLAQTLVSPVPRTAEASAWFINAGMVNMPTLSCANGYYPALTNVNPYHRLDTWKDTLNHWVAYPDMLFYHSVAMIESCYVELGNVARVSDSDAINKYTFTELSVQGRPVMNRGIIVDLTLVAMRTGREISLPYPVSCGLTRTDALLQGTEIHVPVVVKDIDMPQYYNAIDKDVIEGQETVIKVKQLPPAMYPIYTYGINTTEFYSDHFEDQVQVEMAPIDNG
# B2: La Cap N-terminal fragment of pGLa1d6 (aa 1-401) (other)
# chain: MSSLLNSLLPEYFKPKTNLNINSSRVQYGFNARIDMQYEDDSGTRKGSRPNAFMSNTVAFIGNYEGIIVDDIPILDGLRADIFDTHGDLDMGLVEDALSKSTMIRRNVPTYTAYASELLYKRNLTSLFYNMLRLYYIKKWGSIKYEKDAIFYDNGHACLLNRQLFPKSRDASLESSLSLPEAEIAMLDPGLEFPEEDVPAILWHGRVSSRATCILGQACSEFAPLAPFSIAHYSPQLTRKLFVNAPAGIEPSSGRYTHEDVKDAITILVSANQAYTDFEAAYLMLAQTLVSPVPRTAEASAWFINAGMVNMPTLSCANGYYPALTNVNPYHRLDTWKDTLNHWVAYPDMLFYHSVAMIESCYVELGNVARVSDSDAINKYTFTELSVQGRPVMNRGIIVDL
# B3: La Cap N-terminal fragment of pGLa1d2 (aa 1-476) (other)
# chain: MSSLLNSLLPEYFKPKTNLNINSSRVQYGFNARIDMQYEDDSGTRKGSRPNAFMSNTVAFIGNYEGIIVDDIPILDGLRADIFDTHGDLDMGLVEDALSKSTMIRRNVPTYTAYASELLYKRNLTSLFYNMLRLYYIKKWGSIKYEKDAIFYDNGHACLLNRQLFPKSRDASLESSLSLPEAEIAMLDPGLEFPEEDVPAILWHGRVSSRATCILGQACSEFAPLAPFSIAHYSPQLTRKLFVNAPAGIEPSSGRYTHEDVKDAITILVSANQAYTDFEAAYLMLAQTLVSPVPRTAEASAWFINAGMVNMPTLSCANGYYPALTNVNPYHRLDTWKDTLNHWVAYPDMLFYHSVAMIESCYVELGNVARVSDSDAINKYTFTELSVQGRPVMNRGIIVDLTLVAMRTGREISLPYPVSCGLTRTDALLQGTEIHVPVVVKDIDMPQYYNAIDKDVIEGQETVIKVKQLPPAMYPI
# B4: La Cap N-terminal fragment of pGLa1d1 (aa 1-502) (other)
# chain: MSSLLNSLLPEYFKPKTNLNINSSRVQYGFNARIDMQYEDDSGTRKGSRPNAFMSNTVAFIGNYEGIIVDDIPILDGLRADIFDTHGDLDMGLVEDALSKSTMIRRNVPTYTAYASELLYKRNLTSLFYNMLRLYYIKKWGSIKYEKDAIFYDNGHACLLNRQLFPKSRDASLESSLSLPEAEIAMLDPGLEFPEEDVPAILWHGRVSSRATCILGQACSEFAPLAPFSIAHYSPQLTRKLFVNAPAGIEPSSGRYTHEDVKDAITILVSANQAYTDFEAAYLMLAQTLVSPVPRTAEASAWFINAGMVNMPTLSCANGYYPALTNVNPYHRLDTWKDTLNHWVAYPDMLFYHSVAMIESCYVELGNVARVSDSDAINKYTFTELSVQGRPVMNRGIIVDLTLVAMRTGREISLPYPVSCGLTRTDALLQGTEIHVPVVVKDIDMPQYYNAIDKDVIEGQETVIKVKQLPPAMYPIYTYGINTTEFYSDHFEDQVQVEMAPI
# B5: La Cap N-terminal fragment of pGLa1d5 (aa 1-418) (other)
# chain: MSSLLNSLLPEYFKPKTNLNINSSRVQYGFNARIDMQYEDDSGTRKGSRPNAFMSNTVAFIGNYEGIIVDDIPILDGLRADIFDTHGDLDMGLVEDALSKSTMIRRNVPTYTAYASELLYKRNLTSLFYNMLRLYYIKKWGSIKYEKDAIFYDNGHACLLNRQLFPKSRDASLESSLSLPEAEIAMLDPGLEFPEEDVPAILWHGRVSSRATCILGQACSEFAPLAPFSIAHYSPQLTRKLFVNAPAGIEPSSGRYTHEDVKDAITILVSANQAYTDFEAAYLMLAQTLVSPVPRTAEASAWFINAGMVNMPTLSCANGYYPALTNVNPYHRLDTWKDTLNHWVAYPDMLFYHSVAMIESCYVELGNVARVSDSDAINKYTFTELSVQGRPVMNRGIIVDLTLVAMRTGREISLPYPV
# B6: La Cap N-terminal fragment of nonsense mutant pGLa1m5 (S419O, aa 1-418) (other)
# chain: B5 chain
# B7: La Cap N-terminal fragment of pGLa1d4 (aa 1-428) (other)
# chain: MSSLLNSLLPEYFKPKTNLNINSSRVQYGFNARIDMQYEDDSGTRKGSRPNAFMSNTVAFIGNYEGIIVDDIPILDGLRADIFDTHGDLDMGLVEDALSKSTMIRRNVPTYTAYASELLYKRNLTSLFYNMLRLYYIKKWGSIKYEKDAIFYDNGHACLLNRQLFPKSRDASLESSLSLPEAEIAMLDPGLEFPEEDVPAILWHGRVSSRATCILGQACSEFAPLAPFSIAHYSPQLTRKLFVNAPAGIEPSSGRYTHEDVKDAITILVSANQAYTDFEAAYLMLAQTLVSPVPRTAEASAWFINAGMVNMPTLSCANGYYPALTNVNPYHRLDTWKDTLNHWVAYPDMLFYHSVAMIESCYVELGNVARVSDSDAINKYTFTELSVQGRPVMNRGIIVDLTLVAMRTGREISLPYPVSCGLTRTDAL
# B8: La Cap fragment of pGLa1d7 (aa 6-443) (other)
# chain: NSLLPEYFKPKTNLNINSSRVQYGFNARIDMQYEDDSGTRKGSRPNAFMSNTVAFIGNYEGIIVDDIPILDGLRADIFDTHGDLDMGLVEDALSKSTMIRRNVPTYTAYASELLYKRNLTSLFYNMLRLYYIKKWGSIKYEKDAIFYDNGHACLLNRQLFPKSRDASLESSLSLPEAEIAMLDPGLEFPEEDVPAILWHGRVSSRATCILGQACSEFAPLAPFSIAHYSPQLTRKLFVNAPAGIEPSSGRYTHEDVKDAITILVSANQAYTDFEAAYLMLAQTLVSPVPRTAEASAWFINAGMVNMPTLSCANGYYPALTNVNPYHRLDTWKDTLNHWVAYPDMLFYHSVAMIESCYVELGNVARVSDSDAINKYTFTELSVQGRPVMNRGIIVDLTLVAMRTGREISLPYPVSCGLTRTDALLQGTEIHVPVVVKDI
# B9: La Cap N-terminal fragment of nonsense mutant pGLa1m4 (I443O, aa 1-442) (other)
# chain: MSSLLNSLLPEYFKPKTNLNINSSRVQYGFNARIDMQYEDDSGTRKGSRPNAFMSNTVAFIGNYEGIIVDDIPILDGLRADIFDTHGDLDMGLVEDALSKSTMIRRNVPTYTAYASELLYKRNLTSLFYNMLRLYYIKKWGSIKYEKDAIFYDNGHACLLNRQLFPKSRDASLESSLSLPEAEIAMLDPGLEFPEEDVPAILWHGRVSSRATCILGQACSEFAPLAPFSIAHYSPQLTRKLFVNAPAGIEPSSGRYTHEDVKDAITILVSANQAYTDFEAAYLMLAQTLVSPVPRTAEASAWFINAGMVNMPTLSCANGYYPALTNVNPYHRLDTWKDTLNHWVAYPDMLFYHSVAMIESCYVELGNVARVSDSDAINKYTFTELSVQGRPVMNRGIIVDLTLVAMRTGREISLPYPVSCGLTRTDALLQGTEIHVPVVVKD
# B10: La Cap fragment of pGLa1d8 (aa 98-443) (other)
# chain: LSKSTMIRRNVPTYTAYASELLYKRNLTSLFYNMLRLYYIKKWGSIKYEKDAIFYDNGHACLLNRQLFPKSRDASLESSLSLPEAEIAMLDPGLEFPEEDVPAILWHGRVSSRATCILGQACSEFAPLAPFSIAHYSPQLTRKLFVNAPAGIEPSSGRYTHEDVKDAITILVSANQAYTDFEAAYLMLAQTLVSPVPRTAEASAWFINAGMVNMPTLSCANGYYPALTNVNPYHRLDTWKDTLNHWVAYPDMLFYHSVAMIESCYVELGNVARVSDSDAINKYTFTELSVQGRPVMNRGIIVDLTLVAMRTGREISLPYPVSCGLTRTDALLQGTEIHVPVVVKDI
# Target: T1, ScVLa capsid protein Cap, full size …
# Assay: cell-based or functional assay
row,Binder,Curing (%) of ScVLa
1,B1,100%
2,B2,< 10%
3,B3,100%
4,B4,100%
5,B5,< 10%
6,B6,< 10%
7,B7,50%
8,B8,< 10%
9,B9,100%
10,B10,< 10%
11,"MSSLLNSLLP [La Cap N-terminal fragment of nonsense mutant pGLa1m6 (E11O, aa 1-10)]",< 10%
